Experimental data published in the supplement of paper PMC12042874.
± gives the uncertainty stated by the source.

Test: amyloid nucleation score (Sup35N fusion, yeast selection) (log enrichment); library NNK1; higher = more nucleation; inactive = no reads after selection
Summary of the method: (§1)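 Peptides of 20 random codons fused to Sup35N were expressed in psi-negative yeast, induced 24 hours with 100 μM copper sulfate, then grown 7 days at 30°C on medium lacking adenine and uracil. Input and output plasmid inserts were Illumina-sequenced. Nucleation score is the DiMSum log enrichment of output over input reads, centred on the mode score of non-aggregating sequences, excluding sequences with under 100 input reads. Random libraries had three technical output replicates.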

| Substance | amyloid nucleation score |
| --- | --- |
| CRLYVVGFFKKL | inactive |
| KSSCRDLIVDVNTGE | 0.765 ± 0.38 |
| HYIIIRFLNAELTLCHLRMI | -1.61 ± 1.7 |
| DDKLLRVLFLMCSPYYTIIG | -0.065 ± 0.22 |
| LGCLYIA | -0.711 ± 0.44 |
| GQHMASNLERMV | 3.34 ± 0.085 |
| ERENAYPSIMLVCV | -0.092 ± 0.32 |
| SDVEEGLRL | 1.08 ± 0.57 |
| VTRTSYWGVFWSHSWRTWM | inactive |
| RSHSNISKSPLFVVGGAQFM | 0.995 ± 0.56 |
| ASIYMLRFMDLT | -0.244 ± 0.71 |
| HLSSTVITLVPCRLEMYLEG | 0.55 ± 0.25 |
| HMSWMYEWMNVTCKVNMCR | 2.06 ± 0.24 |
| SFGTQPGQISVN | -0.856 ± 2.4 |

Test: amyloid nucleation score (Sup35N fusion, yeast selection) (log enrichment); library NNK2; higher = more nucleation; inactive = no reads after selection
Summary of the method: as §1

| Substance | amyloid nucleation score |
| --- | --- |
| MQYCLGFDLNLRNYICHPGR | 7.303 ± 0.063 |
| FSSSYCNVYYWFYMFFHWG | 1.25 ± 0.14 |
| CHSLRILRPRIYSVQVMLIG | -0.01 ± 0.63 |
| CGLLYREVSIGQGSPTGVRD | inactive |
| NWGWSAILKPLRFAVFRPWN | 0.336 ± 0.6 |
| VYPFSLSVAYVNRLLYYTVQ | 2.14 ± 0.094 |
| DTPCSYISCMCNTIL | 9.453 ± 0.03 |
| SCSIKSSTVVEDPF | 0.049 ± 0.76 |
| LEWLFA | 0.155 ± 1.1 |
| LCSCANCLYSFFTG | 8.04 ± 0.023 |
| HCKSDPWLEPTSVWVFIRLV | 0.818 ± 0.23 |
| SWLTRIC | -0.249 ± 0.63 |
| CSVWWLWSLRM | 1.13 ± 0.43 |
| AILGLYVYMGSWHKGVSGVI | inactive |
| RYMGGIWKSIRTS | 0.061 ± 0.21 |
| ILQYN | -1.49 ± 0.62 |
| TSIYYISNIA | 0.568 ± 0.24 |
| HCLIMGDNDGTLRTLGGR | -0.104 ± 0.65 |
| HTITNTL | -0.06 ± 1.1 |
| LTTPGQNLLILWTLSNMFMI | inactive |
| RNSIYCTND | -0.679 ± 0.47 |
| VNIVSIVYKGDNN | 7.72 ± 0.075 |
| MADTPSNFKYYLPKLFKG | inactive |

| Substance | amyloid nucleation score |
| --- | --- |
| LTIDQHKVCLPN | inactive |
| GRSEVRFMTMLMLCKKCACL | 5.547 ± 0.034 |
| TTGNQLKKCVDKCGGRSGGE | 0.938 ± 0.45 |
| RLYNSQFIKYWNFSSRCCLL | 3.51 ± 0.098 |
| LSFFDLIMGVRGMLQSVCGL | -0.131 ± 0.56 |
| IVLQRVGCFKDAGGNRVWEM | 0.264 ± 0.45 |
| IHLPKCISVSFRVSVGFLDM | inactive |
| SLSSGHETVR | 3.69 ± 0.15 |
| VSQVMLSK | 0.626 ± 0.24 |
| RTALLP | 1.58 ± 0.52 |
| LLLPLFII | inactive |
| RNVSNRPNAQIRKSVRCCWG | 0.388 ± 0.42 |
| HYCYRHIGRLQMWMKSGLHA | 1.04 ± 0.34 |
| AGLRGIHEIGLLDAKWDDNH | inactive |
| GAFSYEMTRLKALGFWPL | 5.87 ± 0.045 |
| FTEFPNFNDMSDRVV | -0.92 ± 0.64 |
| SPFRTDHVF | -0.311 ± 0.33 |
| VVLRHHLFSSALYICMRGIQ | inactive |
| VNAEGTVMQSWHCHCDMSVL | 6.245 ± 0.043 |
| GEYGCHHVCLVQGLFGI | -0.164 ± 0.42 |
| VKDDTSHPYRGFYYRVIRRN | 1.08 ± 0.16 |
| STLKPVNPGKVRH | 0.445 ± 0.57 |
| VLDVVLYPGKF | 0.176 ± 0.26 |

| Substance | amyloid nucleation score |
| --- | --- |
| RVQVPLGRAGTRISRSGKIW | 0.805 ± 0.43 |
| LRGQEKLWGVACSLVLIVTA | 1.39 ± 0.15 |
| DNKRWLRIWMKFLKGDMHGL | -0.283 ± 1.1 |
| VWLSFRVYLVMTSVLVILNC | 1.13 ± 0.11 |
| IYLTLNGILAICASRAWAAK | 0.094 ± 0.77 |
| WTFLIIIWYLDIVV | -1.76 ± 0.48 |
| WVDGICCPPRSG | 0.292 ± 0.29 |
| INGSYSGYLERFGGMLRWMV | 0.753 ± 0.52 |
| YFFITYVPSEAGYRREKWFG | 7.34 ± 0.082 |
| LNQSDLLADFLVLI | 0.474 ± 0.31 |
| NEYGLLYVFIPSSISPLADI | -1.5 ± 1.1 |
| LVSIPSWCPTLASQKLIPR | 2.94 ± 0.19 |
| GPCGVVVNFHRSCFCRFEFL | 7.61 ± 0.082 |
| FAEFKVQIYLSWLYPEIPVN | -0.455 ± 1.1 |
| VIFVRYWGVDYHLADLVIN | -0.563 ± 0.55 |
| GRLYHGVVTCSGRNGINRGS | 2.92 ± 0.19 |
| LKNFNLRIMTTPLNCNCNTY | -0.434 ± 0.29 |
| FGMTRRETWNLSGCESITCT | 0.593 ± 0.45 |
| SGSMKCPSYRYYCPQNIFCT | 6.43 ± 0.08 |
| YGDMAVFVG | 1.07 ± 0.41 |
| CSNYFLSEELRHSVEVGSES | 0.463 ± 0.18 |
| LGFLAEELCMSMMGIVDVPE | inactive |
| KDGLTISRIQITLIKRTLVV | 0.035 ± 0.74 |

| Substance | amyloid nucleation score |
| --- | --- |
| GSRDDSTVLVRKSSCRVEGS | 0.665 ± 0.37 |
| LSVEFARYTG | 1.25 ± 0.15 |
| YYFKFNSS | 3.65 ± 0.12 |
| RCSGVP | 0.908 ± 0.23 |
| IYIGLCLRDYILDNMALMRQ | -0.721 ± 0.32 |
| VEMKGRWLIVNRRLGVSPQA | 0.097 ± 0.35 |
| SSYTMEPPHVRA | 0.155 ± 1.1 |
| YIPMIKL | -0.794 ± 0.43 |
| IVKPSRKLKTQGCMKFNAWL | -0.284 ± 0.61 |
| STDAILAGKFCSGH | -0.943 ± 0.55 |
| DVLWTLQLLFDPVGLCLAMK | 0.391 ± 0.41 |
| RSHATFRSSSLIPGVEV | 0.409 ± 0.23 |
| ICWPSLLYAPGTVKMSTERV | 0.706 ± 0.6 |
| YRSAYFMFTVDHFGLELFFL | 2.45 ± 0.12 |
| ISDAKRNCRCRSLPILIMVW | 0.448 ± 0.24 |
| MYLAGHLDCGGY | 3.27 ± 0.055 |
| ACQYLGLETPKWCGINRWGL | 0.324 ± 0.26 |
| EICLDAITVVPLHGSIRLTV | 0.764 ± 0.25 |
| SLPRWTVCVCVQADGYWMWV | 7.12 ± 0.084 |
| CCAGWYSGEEGRMGSRL | 0.511 ± 0.18 |
| VTLMSV | 0.504 ± 0.74 |
| GVVWKYRIFPWTFPHNFFHL | -0.665 ± 0.39 |
| LWDMIRNGC | -0.769 ± 0.45 |

| Substance | amyloid nucleation score |
| --- | --- |
| AHHLSFGVNDCSTCERSVQ | 0.77 ± 0.28 |
| KSRPSTV | -1.68 ± 1 |
| YMRSWEVLNMCGVSWLCIFA | 7.419 ± 0.064 |
| MDLVCVAKSDVQACTYSAPV | 1.1 ± 0.39 |
| SSVQNCSVCVGGPMYREFSW | 4.994 ± 0.042 |
| TFRRTVNGNMRGQMPTNWAF | 0.537 ± 0.22 |
| FVVGAES | -0.821 ± 0.48 |
| DLRRGSRRWRKYGTGECGLL | 0.43 ± 0.32 |
| CVMMLSSFLQRCRRVVLDSR | 0.325 ± 0.56 |
| QRPAGYHQTLSVARQRLRPD | -0.73 ± 0.76 |
| GNLSNSQTIWFRSNTAISLN | 1.98 ± 0.14 |
| NYSGYLLNASVRRTMRRRVF | -1.18 ± 0.47 |
| MAKSCGRSCTCSRSKVSVGG | 0.52 ± 0.57 |
| PNSYAETDWISLCSDSMSWH | 0.721 ± 0.74 |
| NWVNQTS | -1.6 ± 0.48 |
| QGSKDRSYINKYRDRFCLTD | -0.304 ± 1.1 |
| YADPFSERYNFSALVFPFNI | inactive |
| IARFSKKTSVSMGTRCAT | 0.122 ± 0.3 |
| NMYNLGFLSYYLKISGYLLD | -1.85 ± 1 |
| CFFPDSVTTELKKIKTL | -0.692 ± 0.41 |
| PNACPFWCLGRV | -0.439 ± 0.63 |
| GTVNKSMVTSLTVPLIVC | 0.442 ± 0.28 |
| VLSSRLASIEGNKSSVGFYG | inactive |

| Substance | amyloid nucleation score |
| --- | --- |
| KDPLIRDVLDNANQRLVNSV | inactive |
| QDVSYPSWYPGAFC | -0.675 ± 1.1 |
| LAIVLRGNFTIVSTAIE | 3.26 ± 0.1 |
| ILSFTGASNFVCYMIVAKAG | 6.386 ± 0.033 |
| CIYHGANRIYLSDVA | 0.381 ± 0.6 |
| HSLLGPGPVPSYPQFSSPGR | inactive |
| STMRSWAAC | 4.25 ± 0.091 |
| KRVFAKVTVMDHSNSG | inactive |
| DVGSPWLNYSSFFIFWSTIS | -1.02 ± 1.1 |
| SWHQKSELKTCWSLAIQYHT | -0.191 ± 0.65 |
| HLWVWFRYSSRSFSHMLGDC | 2.92 ± 0.15 |
| RSKHQKRSALCYFESGVTAV | 0.663 ± 0.37 |
| NVVTGVASILWGQDHNKSLV | 0.641 ± 0.74 |
| DLEVLSLGGINFFVVDTFMI | 0.964 ± 0.28 |
| FTIIGAAIKRVVVLTVSPYY | inactive |
| STWCRMANYLITCFVTKSRV | -1.33 ± 1.1 |
| NNSYIRLS | -0.883 ± 0.45 |
| RVGTLSWTRAFVFLGYGMVQ | -0.044 ± 0.48 |
| IIPRMLDMPLSVWQEIIRFW | 0.45 ± 0.5 |
| PYYYRLDFWHHNKKYNFGYY | -1.16 ± 1.1 |
| WSGDFLRYHCHAGDRCMMTM | -0.78 ± 0.63 |
| PRSVFCCLDGRHTPRKMPIY | -0.47 ± 0.74 |
| RSERPFAWVMALTFTCAGGL | 3.47 ± 0.11 |

| Substance | amyloid nucleation score |
| --- | --- |
| LDVAGKVKASHKLRAWVWFS | 0.436 ± 0.8 |
| LTSMRRCPGVYVGNCGVAGR | 1 ± 0.35 |
| KYWFDGYLGYF | -1.14 ± 0.29 |
| EEWTVNCC | 5.766 ± 0.046 |
| SMQKG | inactive |
| VCFYPECVWQSILVLDFHVG | 3.42 ± 0.079 |
| FSTCVVSGSSLYCGGLTLVH | inactive |
| SGTALTRAESSTLMFNRNYR | 0.106 ± 0.41 |
| NWIPSI | -0.817 ± 0.41 |
| LRGVLLSETRCAKEGLPTLS | 0.365 ± 0.36 |
| WSRSNLCTFSFLGNIISPDR | 4.02 ± 0.073 |
| CHPLEMWFFFSLGGFGVSMT | -1.54 ± 1.1 |
| YFPPGDA | -0.47 ± 0.39 |
| NYSDFVVMTRSVLFWYCDQR | -0.424 ± 0.26 |
| SSNHTPTVVMHDHIPVLNFR | -0.628 ± 0.63 |
| CVIGADALASG | 0.5 ± 0.38 |
| TMWGNI | -1.59 ± 0.48 |
| ECRRF | 2.78 ± 0.12 |
